{"source": "patent US20070167369A1", "about": "“Novel use of isolated polypeptide comprising four FAS-1 domains, EM1 domain and RGD motif” (KYUNGPOOK NATIONAL UNIVERSITY INDUSTRY-ACADEMIC COOPERATION …, priority 2004, published 2007)", "target": "αvβ3 integrin (human) (UniProt P06756)", "sequence (P06756 31-1048, chain 1 of 2)": "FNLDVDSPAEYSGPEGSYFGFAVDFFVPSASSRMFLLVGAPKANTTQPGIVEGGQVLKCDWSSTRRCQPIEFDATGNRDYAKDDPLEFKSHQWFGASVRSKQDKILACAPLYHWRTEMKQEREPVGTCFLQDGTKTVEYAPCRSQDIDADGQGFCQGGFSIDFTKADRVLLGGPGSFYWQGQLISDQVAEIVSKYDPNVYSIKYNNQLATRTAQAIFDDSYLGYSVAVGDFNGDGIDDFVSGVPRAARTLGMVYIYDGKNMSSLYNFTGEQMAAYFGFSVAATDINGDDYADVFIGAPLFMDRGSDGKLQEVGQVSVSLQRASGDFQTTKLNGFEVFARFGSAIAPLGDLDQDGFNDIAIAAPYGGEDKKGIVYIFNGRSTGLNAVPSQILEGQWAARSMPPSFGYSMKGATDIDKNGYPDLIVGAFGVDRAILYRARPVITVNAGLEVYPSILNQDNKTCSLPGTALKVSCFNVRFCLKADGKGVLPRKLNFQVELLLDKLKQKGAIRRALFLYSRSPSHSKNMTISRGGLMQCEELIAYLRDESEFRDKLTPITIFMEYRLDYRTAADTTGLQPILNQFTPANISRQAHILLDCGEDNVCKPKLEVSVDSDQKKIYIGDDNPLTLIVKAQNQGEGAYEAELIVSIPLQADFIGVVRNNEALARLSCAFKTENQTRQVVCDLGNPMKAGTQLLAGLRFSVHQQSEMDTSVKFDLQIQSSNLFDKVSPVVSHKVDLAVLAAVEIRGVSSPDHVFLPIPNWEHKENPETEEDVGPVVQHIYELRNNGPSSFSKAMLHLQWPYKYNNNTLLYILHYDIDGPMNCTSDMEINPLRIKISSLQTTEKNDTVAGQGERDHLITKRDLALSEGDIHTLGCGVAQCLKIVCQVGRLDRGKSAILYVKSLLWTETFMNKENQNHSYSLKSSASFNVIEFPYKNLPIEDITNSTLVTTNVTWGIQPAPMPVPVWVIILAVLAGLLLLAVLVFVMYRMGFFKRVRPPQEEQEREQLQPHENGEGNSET", "sequence (P05106 27-788, chain 2 of 2, further chain)": "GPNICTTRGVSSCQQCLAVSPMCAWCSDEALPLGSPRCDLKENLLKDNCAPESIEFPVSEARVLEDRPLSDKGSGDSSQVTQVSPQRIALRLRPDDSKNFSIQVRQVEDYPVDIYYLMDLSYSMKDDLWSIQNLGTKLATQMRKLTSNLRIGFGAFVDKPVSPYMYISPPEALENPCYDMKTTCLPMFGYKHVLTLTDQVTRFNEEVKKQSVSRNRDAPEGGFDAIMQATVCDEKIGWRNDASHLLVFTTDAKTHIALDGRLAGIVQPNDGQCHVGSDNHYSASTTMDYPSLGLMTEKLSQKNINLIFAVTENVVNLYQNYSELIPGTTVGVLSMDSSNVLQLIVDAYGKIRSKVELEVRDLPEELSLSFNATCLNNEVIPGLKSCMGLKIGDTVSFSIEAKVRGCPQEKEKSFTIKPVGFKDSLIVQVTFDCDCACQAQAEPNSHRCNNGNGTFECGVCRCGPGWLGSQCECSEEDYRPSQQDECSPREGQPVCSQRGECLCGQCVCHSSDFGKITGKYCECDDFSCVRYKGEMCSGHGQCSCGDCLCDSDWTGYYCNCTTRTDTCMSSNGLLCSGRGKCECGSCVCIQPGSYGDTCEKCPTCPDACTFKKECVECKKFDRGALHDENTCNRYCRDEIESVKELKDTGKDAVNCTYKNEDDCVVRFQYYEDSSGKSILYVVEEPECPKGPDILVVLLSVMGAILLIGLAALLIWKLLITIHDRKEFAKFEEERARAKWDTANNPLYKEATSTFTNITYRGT", "assay": "cell-based or functional assay"}
{"substance": "Regenin (regenin protein that expresses four of the fourth fas-1 domains of βig-h3)", "values": [{"measurement": "70%-inhibition of tube formation (HUVECs on Matrigel)", "result": 5, "unit": "µM"}, {"measurement": "half-inhibition of migration toward vitronectin (HUVECs, transwell)", "result": 5, "unit": "µM"}]}
